From patent US20230088483A1, “USE OF R[…] GENE DERIVED PROTEIN OR FRAGMENT THEREOF” (priority 2020, published 2023)
Where two headings read alike, the source gives them in different places.

Tested on: SARS-CoV-2 (C-Tan-nCoV Wuhan strain 01)
Type: cell-based
Details: Vero cells; for Ct value: 100 PFU/well, medicine added 2 h after infection, supernatant at 24 h, qRT-PCR target ORF1a/b, control group Ct 22.6

B1: Novaferon: Recombinant cytokine gene derived protein, an analog of interferon (SEQ ID NO: 1); applicant's product, Genova Biotech (Qingdao) Co., Ltd. (protein)
chain: CNLSQTHSLGSKRTLMLLAQMGKISLFSCLKDRHDFEFPQEEFDGNQFQKAQAISVLHELIQQTFNLFSTKESSAAWDEGLLDKFRTELYRQLNDLEACMMQEVGVEETPLMNADSILAVKKYFQRITLYLMEKKYSPCAWEVVRVEIMRSLSFSTNLQKRLRGKD
modifications: Amino Acid Sequences Synthesized by Chemical Means
**Q.** What does the source list for B1?
**A.** Ct value (Novaferon 0.001 ng/mL): 22.645; Ct value (Novaferon 0.01 ng/mL): 22.685; Ct value (Novaferon 0.1 ng/mL): 22.815; Ct value (Novaferon 1 ng/mL): 23.665; Ct value (Novaferon 10 ng/mL): 29.025; Ct value (Novaferon 100 ng/mL): 27.625; cytopathic effect (CPE) (medicine concentration 10 ng/mL): no obvious cytopathic effect; cytopathic effect (CPE) (medicine concentration 100 ng/mL): no obvious cytopathic effect; half maximal inhibitory concentration IC50 for the SARS-CoV-2 in vitro (preliminary calculation from inhibition rates based on Ct values): 1.02 ng/mL
